Read-outs that look alike come from different tables or passages of the source.
Columns and labels:
[1] = target: T1, Human CD3ε stalk-Fc(knob)-Avi/CD3δ stalk-Fc(hole) (human); experiment: SPR on immobilized human CD3ε/δ after stress, relative to sample kept at -80°C pH 6
T1 construct: Heterodimer of CD3 delta and CD3 epsilon ectodomains fused to human Fc with knob-into-hole; also called human CD3ε/δ; CD3 antigen
Protocol: In order to assess the effect of the deamidation site removal and its effect on the stability of the antibodies, the optimized anti-CD3 antibodies (in TCB format) were incubated for 14 days at 37° C., pH 7.4 and at 40° C., pH 6 and further analyzed by SPR for their binding capability to human CD3ε/δ. Samples stored at −80° C. pH 6 were used as reference. The reference samples and the samples stressed at 40° C. were in 20 mM His, 140 mM NaCl, pH 6.0, and the samples stressed at 37° C. in PBS, pH 7.4, all at a concentration of 1.0 mg/ml. After the stress period (14 days) samples in PBS were dialyzed back to 20 mM His, 140 mM NaCl, pH 6.0 for further analysis.
(§1) All SPR experiments were performed on a Biacore T200 instrument (GE Healthcare) at 25° C. with HBS-P+ (10 mM HEPES, 150 mM NaCl pH 7.4, 0.05% Surfactant P20) as running and dilution buffer. Biotinylated human CD3ε/δ (see Example 3, SEQ ID NOs 41 and 42) as well as biotinylated anti-huIgG (Capture Select, Thermo Scientific, #7103262100) were immobilized on a Series S Sensor Chip SA (GE Healthcare, #29104992), resulting in surface densities of at least 1000 resonance units (RU). Anti-CD3 antibodies with a concentration of 2 μg/ml were injected for 30 s at a flow rate of 5 μl/min, and dissociation was monitored for 120 s. The surface was regenerated by injecting 10 mM glycine pH 1.5 for 60 s. Bulk refractive index differences were corrected by subtracting blank injections and by subtracting the response obtained from a blank control flow cell. For evaluation, the binding response 5 seconds after injection end was taken. To normalize the binding signal, the CD3 binding was divided by the anti-huIgG response (the signal (RU) obtained upon capture of the CD3 antibody on the immobilized anti-huIgG antibody). The relative binding activity was calculated by referencing each temperature stressed sample to the corresponding, non-stressed sample.
The experiment was performed as described in Example 4, using the TCB molecules prepared in Example 7.

[2] = target: T2, human GPRC5D on stably transduced CHO-K1 cells (human, UniProt Q9NZD1 1-345); experiment: flow cytometry on CHO-K1 cells stably transduced with human GPRC5D, performed as in Example 11
T2 construct: whole, on cells; also called CHO-hGPRC5D cells
T2 sequence (Q9NZD1 whole entry): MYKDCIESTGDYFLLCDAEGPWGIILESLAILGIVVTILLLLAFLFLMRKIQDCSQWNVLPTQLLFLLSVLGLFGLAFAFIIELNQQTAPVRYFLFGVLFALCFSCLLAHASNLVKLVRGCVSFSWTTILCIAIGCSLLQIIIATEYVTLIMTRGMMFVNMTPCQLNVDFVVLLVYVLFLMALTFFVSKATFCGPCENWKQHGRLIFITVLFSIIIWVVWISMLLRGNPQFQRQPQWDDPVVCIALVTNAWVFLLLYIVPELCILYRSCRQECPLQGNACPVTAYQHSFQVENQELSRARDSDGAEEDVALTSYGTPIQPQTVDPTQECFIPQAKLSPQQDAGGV
Protocol: The binding of the CEACAM5-TCB molecules prepared in Example 7 was tested on CEACAM5 (CEA)-positive tumor cells (LS-180 cells, ECACC #87021202) and CD3-expressing immortalized T lymphocyte cells (GloResponse Jurkat NFAT-RE-luc2P; Promega, #CS176501). Briefly, adherent LS-180 cells were detached, using Cell Dissociation Buffer (Gibco), counted, checked for viability and re-suspended at 2 million cells per ml in FACS buffer (PBS with 0.1% BSA). Likewise, Jurkat suspension cells were harvested and plated for subsequent stainings. 100 μl of the cell suspension (containing 0.2 million cells) were incubated in round-bottom 96-well plates for 30 min at 4° C. with increasing concentrations of the CEACAM5-TCB molecules (4 pM-300 nM). Cells were washed twice with cold PBS 0.1% BSA (FACS buffer), re-incubated for further 30 min at 4° C. with the Alexa Fluor 647-conjugated AffiniPure F(ab′)2 Fragment Goat Anti-Human IgG, Fcγ Fragment Specific Antibody (Jackson Immuno Research Lab #109-606-008, diluted 1:50 in FACS buffer) and washed twice with cold PBS 0.1% BSA thereafter. The staining was fixed for 20 min at 4° C. in the dark, using 150 μl of 2% PFA in FACS buffer per well. Fluorescence was analyzed by FACS using a FACS Fortessa (Software FACS Diva). Binding curves were obtained using GraphPadPrism6.
The binding of the GPRC5D-TCB molecules prepared in Example 7 was tested using CHO-transfectants stably transduced to express human GPRC5D (CHO-K1, ATCC) and CD3-expressing immortalized T lymphocyte cells (GloResponse Jurkat NFAT-RE-luc2P; Promega, #CS176501). The experiment was performed as described in Example 11.

[3] = target: human CD3 on cells (CD3ε) (human, UniProt P07766 23-207); experiment: cell-based or functional assay
Sequence of human CD3 on cells (CD3ε) (P07766 23-207 limits assumed): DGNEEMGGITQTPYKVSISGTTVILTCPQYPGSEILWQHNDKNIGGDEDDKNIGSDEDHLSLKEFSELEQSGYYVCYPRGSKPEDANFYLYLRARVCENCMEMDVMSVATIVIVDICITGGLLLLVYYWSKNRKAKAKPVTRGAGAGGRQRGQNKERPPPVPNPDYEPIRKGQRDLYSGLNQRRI

[4] = target: T3, Cynomolgus CD3ε stalk-Fc(knob)-Avi/CD3δ stalk-Fc(hole) (cynomolgus); experiment: SPR, TCB captured by anti-PG antibody, antigen as analyte, 25°C
T3 construct: also called cynomolgus CD3ε/δ
From the text: (§2) For affinity measurements, TCB molecules were captured on a C1 sensorchip (GE Healthcare) surface with immobilized anti-Fc(P329G) IgG (an antibody that specifically binds human IgG₁ Fc(P329G); “anti-PG antibody”—see WO 2017/072210, incorporated herein by reference). The experimental setup is schematically depicted in FIG. 3. Capture IgG was coupled to the sensorchip surface by direct immobilization of around 400 resonance units (RU) using the standard amine coupling kit (GE Healthcare Life Sciences).
(§3) Kinetic constants were derived using the Biacore T200 Evaluation Software (GE Healthcare Life Sciences), to fit rate equations for 1:1 Langmuir binding by numerical integration. The half-life (t_{1/2}) of the interaction was calculated using the formula t_{1/2}=ln2/koff.
(§4) To analyze the interaction to CD3, TCB molecules were captured for 240 s at 25 nM with a flow rate of 10 μl/min. Human and cynomolgus CD3F stalk-Fc(knob)-Avi/CD36-stalk-Fc(hole) were passed at a concentration of 0.14-100 nM with a flow rate of […] through the flow cells for 240 s. The dissociation was monitored for 800 s.

[5] = target: T1, Human CD3ε stalk-Fc(knob)-Avi/CD3δ …; experiment: as above
From the text: as §2, §3, §4

[6] = target: T3, Cynomolgus CD3ε stalk-Fc(knob)-Avi/CD3δ …; experiment: SPR, monovalent IgG captured by anti-PG antibody, antigen as analyte, 25°C; bad fit quality per footnote
Protocol: (§5) SPR experiments were performed as described in Example 3, with the monovalent IgG molecules prepared in Example 19.
(§6) To analyze the interaction to CD3, IgG molecules were captured for 240 s at 50 nM with a flow rate of 5 μl/min. Human and cynomolgus CD3F stalk-Fc(knob)-Avi/CD36-stalk-Fc(hole) were passed at a concentration of 0.061-250 nM with a flow rate of […] through the flow cells for 300 s. The dissociation was monitored for 800 s.

[7] = target: T1, Human CD3ε stalk-Fc(knob)-Avi/CD3δ …; experiment: as above
Protocol: as §5, §6

[8] = target: T1, Human CD3ε stalk-Fc(knob)-Avi/CD3δ …; experiment: SPR on immobilized human CD3ε/δ after stress, relative to sample kept at -80°C pH 6; remark: listed apart in the source
Protocol: as §1
The experiment was performed as described in Example 4, using the monovalent IgG molecules prepared in Example 19.

| binding activity [%] after 2 weeks at pH 6.0/40°C [1] [%] | binding activity [%] after 2 weeks at pH 7.4/37°C [1] [%] | binding result [2] | EC50 20 h (pM), T-cell mediated lysis of GPRC5D-expressing NCI-H929 cells [3] [pM] | Kd [4] [pM] | koff [4] [s⁻¹] | kon [4] [M⁻¹ s⁻¹] | t1/2 [4] [min] | Kd [5] [pM] | koff [5] [s⁻¹] | kon [5] [M⁻¹ s⁻¹] | t1/2 [5] [min] | Binder | further results |
| --- | --- | --- | --- | --- | --- | --- | --- | --- | --- | --- | --- | --- | --- |
| 99 | 98 | binds | 0.41 | 333 | 0.000688 | 2.07e+06 | 16.8 | 547 | 0.000948 | 1.74e+06 | 12.2 | GPRC5D-TCB, GPRC5D CD3 variant P033.078 (bispecific antibody, human IgG1, kappa, L234A L235A, 2+1 IgG CrossFab, inverted; human IgG1 Fc, knob-into-hole, PGLALA; also called P033.078 in GPRC5D-TCB format) heavy 1: not shown heavy 2: EVQLVESGGGVVQPGRSLRLSCAASGFSFSNYGMAWVRQAPGKGLEWVASISTGGGNTYYRDSVKGRFTISRDNAKNTLYLQMNSLRAEDTAVYYCTRHDRGGLYWGQGTMVTVSSASTKGPSVFPLAPSSKSTSGGTAALGCLVEDYFPEPVTVSWNSGALTSGVHTFPAVLQSSGLYSLSSVVTVPSSSLGTQTYICNVNHKPSNTKVDEKVEPKSCDKTHTCPPCPAPEAAGGPSVFLFPPKPKDTLMISRTPEVTCVVVDVSHEDPEVKFNWYVDGVEVHNAKTKPREEQYNSTYRVVSVLTVLHQDWLNGKEYKCKVSNKALGAPIEKTISKAKGQPREPQVCTLPPSRDELTKNQVSLSCAVKGFYPSDIAVEWESNGQPENNYKTTPPVLDSDGSFFLVSKLTVDKSRWQQGNVFSCSVMHEALHNHYTQKSLSLSP light 1: DIVMTQSPLSLPVTPGEPASISCRSSKSLLHSNGITYVYWYLQKPGQSPQLLIYRMSNRASGVPDRFSGSGSGTDFTLKISRVEAEDVGVYHCGQLLENPYTFGQGTKLEIKRTVAAPSVFIFPPSDRKLKSGTASVVCLLNNFYPREAKVQWKVDNALQSGNSQESVTEQDSKDSTYSLSSTLTLSKADYEKHKVYACEVTHQGLSSPVTKSFNRGEC light 2: EVQLLESGGGLVQPGGSLRLSCAASGFTFESYAMNWVRQAPGKGLEWVSRIRSKYNEYATYYADSVKGRFTISRDDSKNTLYLQMNSLRAEDTAVYYCVRASNFPSSFVSYFGYWGQGTLVTVSSASVAAPSVFIFPPSDEQLKSGTASVVCLLNNFYPREAKVQWKVDNALQSGNSQESVTEQDSKDSTYSLSSTLTLSKADYEKHKVYACEVTHQGLSSPVTKSFNRGEC |  |
| 100 | 99 | binds | 0.87 | 599 | 0.00163 | 2.72e+06 | 7.09 | 1210 | 0.00265 | 2.2e+06 | 4.36 | GPRC5D-TCB, GPRC5D CD3 variant P004.042 (bispecific antibody, human IgG1, kappa, L234A L235A, 2+1 IgG CrossFab, inverted; human IgG1 Fc, knob-into-hole, PGLALA; also called P004.042 in GPRC5D-TCB format) heavy 1: not shown heavy 2: EVQLVESGGGVVQPGRSLRLSCAASGFSFSNYGMAWVRQAPGKGLEWVASISTGGGNTYYRDSVKGRFTISRDNAKNTLYLQMNSLRAEDTAVYYCTRHDRGGLYWGQGTMVTVSSASTKGPSVFPLAPSSKSTSGGTAALGCLVEDYFPEPVTVSWNSGALTSGVHTFPAVLQSSGLYSLSSVVTVPSSSLGTQTYICNVNHKPSNTKVDEKVEPKSCDKTHTCPPCPAPEAAGGPSVFLFPPKPKDTLMISRTPEVTCVVVDVSHEDPEVKFNWYVDGVEVHNAKTKPREEQYNSTYRVVSVLTVLHQDWLNGKEYKCKVSNKALGAPIEKTISKAKGQPREPQVCTLPPSRDELTKNQVSLSCAVKGFYPSDIAVEWESNGQPENNYKTTPPVLDSDGSFFLVSKLTVDKSRWQQGNVFSCSVMHEALHNHYTQKSLSLSP light 1: DIVMTQSPLSLPVTPGEPASISCRSSKSLLHSNGITYVYWYLQKPGQSPQLLIYRMSNRASGVPDRFSGSGSGTDFTLKISRVEAEDVGVYHCGQLLENPYTFGQGTKLEIKRTVAAPSVFIFPPSDRKLKSGTASVVCLLNNFYPREAKVQWKVDNALQSGNSQESVTEQDSKDSTYSLSSTLTLSKADYEKHKVYACEVTHQGLSSPVTKSFNRGEC light 2: EVQLLESGGGLVQPGGSLRLSCAASGFQFDNYAMNWVRQAPGKGLEWVSRIRTKYNEYATYYADSVKGRFTISRDDSKNTLYLQMNSLRAEDTAVYYCVRASNFPQSYVSYFGYWGQGTLVTVSSASVAAPSVFIFPPSDEQLKSGTASVVCLLNNFYPREAKVQWKVDNALQSGNSQESVTEQDSKDSTYSLSSTLTLSKADYEKHKVYACEVTHQGLSSPVTKSFNRGEC |  |
|  |  |  |  |  |  |  |  |  |  |  |  | anti-CD3 antibody clone P004.042 in monovalent IgG format (antibody, also called monovalent IgG P004.042) heavy: not shown DKTHTCPPCPAPEAAGGPSVFLFPPKPKDTLMISRTPEVTCVVVDVSHEDPEVKFNWYVDGVEVHNAKTKPREEQYNSTYRVVSVLTVLHQDWLNGKEYKCKVSNKALGAPIEKTISKAKGQPREPQVCTLPPSRDELTKNQVSLSCAVKGFYPSDIAVEWESNGQPENNYKTTPPVLDSDGSFFLVSKLTVDKSRWQQGNVFSCSVMHEALHNHYTQKSLSLSP light: EVQLLESGGGLVQPGGSLRLSCAASGFQFDNYAMNWVRQAPGKGLEWVSRIRTKYNEYATYYADSVKGRFTISRDDSKNTLYLQMNSLRAEDTAVYYCVRASNFPQSYVSYFGYWGQGTLVTVSSASVAAPSVFIFPPSDEQLKSGTASVVCLLNNFYPREAKVQWKVDNALQSGNSQESVTEQDSKDSTYSLSSTLTLSKADYEKHKVYACEVTHQGLSSPVTKSFNRGEC | Kd [6]: 439 pM; koff [6]: 0.00809 s⁻¹; kon [6]: 1.85e+07 M⁻¹ s⁻¹; t1/2 [6]: 1.43 min; Kd [7]: 1360 pM; koff [7]: 0.00852 s⁻¹; kon [7]: 6.28e+06 M⁻¹ s⁻¹; t1/2 [7]: 1.36 min; binding activity [%] after 2 weeks at pH 6.0/40°C [8]: 101%; binding activity [%] after 2 weeks at pH 7.4/37°C [8]: 98% |
